Like-named read-outs stand apart in the source and are kept apart here. One block for each binder: values may come before it.
How the values were obtained:
[1] = molecular target: T1, full-length mature human EMR2 (residues Q24-N823) with N-terminal aspartic acid/lysine epitope tag, … (human, UniProt Q9UHX3 24-823); experiment: cell-based or functional assay
T1 sequence: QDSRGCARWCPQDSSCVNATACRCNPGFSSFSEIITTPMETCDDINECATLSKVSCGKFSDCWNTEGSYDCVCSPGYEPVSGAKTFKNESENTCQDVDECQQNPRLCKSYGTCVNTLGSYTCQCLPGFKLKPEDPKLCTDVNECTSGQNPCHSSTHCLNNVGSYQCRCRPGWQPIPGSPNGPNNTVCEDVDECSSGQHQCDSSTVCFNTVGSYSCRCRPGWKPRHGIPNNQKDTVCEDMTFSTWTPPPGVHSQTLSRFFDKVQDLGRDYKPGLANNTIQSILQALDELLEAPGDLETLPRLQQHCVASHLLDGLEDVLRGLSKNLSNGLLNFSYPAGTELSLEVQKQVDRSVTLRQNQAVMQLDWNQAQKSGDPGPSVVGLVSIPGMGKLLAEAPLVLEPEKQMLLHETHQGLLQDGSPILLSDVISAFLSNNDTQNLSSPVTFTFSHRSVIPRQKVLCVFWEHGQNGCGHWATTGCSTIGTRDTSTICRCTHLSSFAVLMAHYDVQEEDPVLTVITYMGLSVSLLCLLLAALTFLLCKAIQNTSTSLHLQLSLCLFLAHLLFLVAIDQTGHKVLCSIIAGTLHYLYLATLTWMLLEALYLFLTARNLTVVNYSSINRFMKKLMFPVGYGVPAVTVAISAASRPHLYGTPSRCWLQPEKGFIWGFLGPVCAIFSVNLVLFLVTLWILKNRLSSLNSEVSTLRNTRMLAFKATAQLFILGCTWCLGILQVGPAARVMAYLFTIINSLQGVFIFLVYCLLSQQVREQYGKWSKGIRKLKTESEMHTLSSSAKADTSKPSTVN

[2] = molecular target: T2, full-length mature cynomolgus EMR2 (residues Q24-N816) with N-terminal aspartic acid/lysine epitope tag, … (cynomolgus monkey (Macaca fascicularis), UniProt A0A2K5WL23 21-816); experiment: cell-based or functional assay
T2 sequence: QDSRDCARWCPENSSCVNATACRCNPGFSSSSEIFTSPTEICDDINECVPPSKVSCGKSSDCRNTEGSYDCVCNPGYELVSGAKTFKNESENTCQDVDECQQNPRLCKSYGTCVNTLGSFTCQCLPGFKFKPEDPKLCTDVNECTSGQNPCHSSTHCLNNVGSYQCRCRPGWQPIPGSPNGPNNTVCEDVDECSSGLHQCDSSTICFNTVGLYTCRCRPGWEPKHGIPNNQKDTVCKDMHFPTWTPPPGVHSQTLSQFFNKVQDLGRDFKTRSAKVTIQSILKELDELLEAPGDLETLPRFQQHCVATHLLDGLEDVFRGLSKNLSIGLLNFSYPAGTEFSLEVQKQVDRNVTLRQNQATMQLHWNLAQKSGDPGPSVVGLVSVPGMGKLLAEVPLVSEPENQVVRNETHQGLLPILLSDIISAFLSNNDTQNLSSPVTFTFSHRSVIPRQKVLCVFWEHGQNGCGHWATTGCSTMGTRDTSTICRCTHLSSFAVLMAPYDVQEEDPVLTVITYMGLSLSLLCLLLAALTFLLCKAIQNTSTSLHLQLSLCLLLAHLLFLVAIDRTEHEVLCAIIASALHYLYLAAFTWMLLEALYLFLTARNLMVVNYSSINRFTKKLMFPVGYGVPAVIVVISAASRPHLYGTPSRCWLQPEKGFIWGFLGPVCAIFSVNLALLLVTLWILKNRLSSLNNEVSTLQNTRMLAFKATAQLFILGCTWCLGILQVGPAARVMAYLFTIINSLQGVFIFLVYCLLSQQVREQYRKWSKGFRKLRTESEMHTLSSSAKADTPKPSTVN

[3] = molecular target: T3, full-length mature human CD97 (residues Q21-I845) with N-terminal aspartic acid/lysine epitope tag, … (human, UniProt P48960 21-835); experiment: cell-based or functional assay
T3 sequence (looked up): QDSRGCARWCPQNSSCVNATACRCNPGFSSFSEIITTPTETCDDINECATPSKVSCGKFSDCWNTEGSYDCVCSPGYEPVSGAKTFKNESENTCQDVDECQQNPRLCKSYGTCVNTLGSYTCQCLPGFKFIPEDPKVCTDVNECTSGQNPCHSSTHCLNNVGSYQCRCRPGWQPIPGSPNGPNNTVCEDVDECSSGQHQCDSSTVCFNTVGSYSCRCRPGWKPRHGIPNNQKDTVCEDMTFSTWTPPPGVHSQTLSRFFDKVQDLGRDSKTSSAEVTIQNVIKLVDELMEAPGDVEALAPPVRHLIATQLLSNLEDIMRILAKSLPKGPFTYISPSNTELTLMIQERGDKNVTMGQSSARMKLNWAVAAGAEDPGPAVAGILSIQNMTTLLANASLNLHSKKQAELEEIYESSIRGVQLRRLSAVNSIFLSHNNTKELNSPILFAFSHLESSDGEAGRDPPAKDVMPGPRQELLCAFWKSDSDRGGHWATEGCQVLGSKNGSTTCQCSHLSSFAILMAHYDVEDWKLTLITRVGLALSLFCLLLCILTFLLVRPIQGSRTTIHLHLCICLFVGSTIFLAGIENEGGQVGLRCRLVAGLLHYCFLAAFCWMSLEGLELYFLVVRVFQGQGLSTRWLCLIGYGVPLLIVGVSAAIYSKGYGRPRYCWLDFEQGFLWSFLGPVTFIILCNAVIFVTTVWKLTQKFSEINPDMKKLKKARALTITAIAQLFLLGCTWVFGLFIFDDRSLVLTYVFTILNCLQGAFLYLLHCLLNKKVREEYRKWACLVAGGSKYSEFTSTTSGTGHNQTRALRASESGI

[4] = molecular target: T1, full-length mature human EMR2 (residues …); experiment: flow cytometry on transduced HEK293T; 293 naive MFI 97.2
Protocol: (§1) The exemplary antibodies were also tested using flow cytometry to determine their ability to associate with hEMR2, cEMR2 and CD97 expressed on the surface of cells.

[5] = molecular target: T2, full-length mature cynomolgus EMR2 …; experiment: as above
Protocol: as §1

[6] = molecular target: T3, full-length mature human CD97 (residues …); experiment: as above
Protocol: as §1

[7] = molecular target: T1, full-length mature human EMR2 (residues …); experiment: flow cytometry on transduced HEK293T; 293 naive MFI 95.6
Protocol: as §1

[8] = molecular target: T2, full-length mature cynomolgus EMR2 …; experiment: as above
Protocol: as §1

[9] = molecular target: T3, full-length mature human CD97 (residues …); experiment: as above
Protocol: as §1

[10] = molecular target: T1, full-length mature human EMR2 (residues …); experiment: cell-based or functional assay; remark: listed apart in the source
[11] = molecular target: T2, full-length mature cynomolgus EMR2 …; experiment: cell-based or functional assay; remark: listed apart in the source
[12] = molecular target: T3, full-length mature human CD97 (residues …); experiment: cell-based or functional assay; remark: listed apart in the source
[13] = molecular target: T3, full-length mature human CD97 (residues …); experiment: flow cytometry on HEK293T cells overexpressing hCD97
Protocol: as §1

[14] = molecular target: T1, full-length mature human EMR2 (residues …); experiment: flow cytometry on transduced HEK293T; 293 naive MFI 102
Protocol: as §1

[15] = molecular target: T2, full-length mature cynomolgus EMR2 …; experiment: as above
Protocol: as §1

[16] = molecular target: T3, full-length mature human CD97 (residues …); experiment: as above
Protocol: as §1

[17] = molecular target: T1, full-length mature human EMR2 (residues …); experiment: flow cytometry on transduced HEK293T; 293 naive MFI 67.6
Protocol: as §1

[18] = molecular target: T2, full-length mature cynomolgus EMR2 …; experiment: as above
Protocol: as §1

[19] = molecular target: T3, full-length mature human CD97 (residues …); experiment: as above
Protocol: as §1

B2: SC93.219 (antibody, IgG2b, V domains shown)
VH: EVQLVESGGGLVQPGGSRKLSCAASGFTFSSYGMHWVRQAPEKGLEWVAYISSSGGTIYYADTVKGRFTISRDNAKNTLFLQMTSLRSEDTAMYYCARRGYGNSFDYWGQGTTLTVSS
VL: QIVLTQSPAIMSASPGEKVTMTCSASSSVSYMYWYQQKPGSSPRLLIYDTSNLASGVPVRFSGSGSGTSYSLTISRMEAEDAATYYCQQWSSYPPFGGGTKLEIK
notes: murine, IgG2b
% live, FAB-saporin killing assay [1]: 100% | % live, FAB-saporin killing assay [2]: 87.7% | % live, FAB-saporin killing assay [3]: 102% | FC MFI [7]: 76.2 | FC MFI [8]: 85.3 | FC MFI [9]: 87.5

B4: SC93.160 (antibody, IgG2a, V domains shown)
VH: QILLVQSGPELKKPGETVKISCKASGYTFTDYGIHWVKQAPGKGLKWMGWINTKTGVPTYADDFKGRFAFSLETSASTAYLQINNLKIEDTATYFCAGGNSLYYGSRPYWGQGTLVTVSA
VL: DIVMTQSPSSLTVTAGEKVTMSCKSSQSLLNSGNQKNYLTWYQQKPGQPPKLLIYWASTRESGVPDRFTGSGSGTDFTLTISSVQAEDLAVYYCQNDYSYPTFGSGTKLELK
notes: murine, IgG2a
% live, FAB-saporin killing assay [1]: 96.8% | % live, FAB-saporin killing assay [2]: 101% | % live, FAB-saporin killing assay [3]: 105% | FC MFI [17]: 26000 | FC MFI [18]: 62.6 | FC MFI [19]: 61.8

Further lines, with some results ahead:

FC MFI [4]: 5080 | FC MFI [5]: 72.5 | FC MFI [6]: 74.2
B1: SC93.221 (antibody, IgG1, V domains shown)
VH: QIQLVQSGSELKKPGETVKISCKASGYTFTDYSINWVKQAPGKGFKWMGWINTYTGVPTYADDFKGRFAFSLETSATTAYLQINNLKNEDTATYFCARARYDGYYGRFDYWGQGTTLTVSS
VL: DFLMTQTPLSLPVSLGDQASISCRSSQSIVHSNGDTYLEWFLQKPGQSPKLLIYKVSNRFSGVPDRFSGSGSGTDFTLKISRVEAEDLGVYYCFQGSHVPFTFGSGTKLEIK
notes: murine, IgG1
% live, FAB-saporin killing assay [1]: 101% | % live, FAB-saporin killing assay [2]: 92.2% | % live, FAB-saporin killing assay [3]: 99.1%

binding result [13]: no binding | FC MFI [14]: 49900 | FC MFI [15]: 40400 | FC MFI [16]: 98.3
B3: SC93.266 (antibody, V domains shown)
VH: EVKLEESGGGLVQPGGSMKLSCAASGFTFSDAWMDWVRQSPEKGLEWVAEIRSKVNNHETYYAESVKGRFTISRDDSKSSVYLQMNSLRAEDTGIYYCIRNDYFDYWGQGTTLTVSS
VL: DIQMTQTTSSLSASLGDRVTISCSASQGIRNYLNWYQQKPDGTVKLLIYYTSRLHSGVPSRFSGSGSGTDYSLTISNLEPEDIATYYCQQYGKLPYTFGGGTKLEIN
notes: Murine hybridoma antibody
% live, FAB-saporin killing assay [10]: 13.1% | % live, FAB-saporin killing assay [11]: 12.7% | % live, FAB-saporin killing assay [12]: 99.2%

From patent publication US20180327506A1 (AbbVie / Abbott, published 2018)
